Assay [1] concerns the target T1, dog PAI-1 (bacterially-derived active dog PAI-1) (dog).
T1 construct: also called canine PAI-1
In words: IgG competition ELISA (DELFIA) against biotinylated human PAI-1, one-site binding analysis; column Dog. A general note: In an ELISA, binding on a coated surface is turned into a signal by an enzyme label.

The target in assay [2] is T2, latent human PAI-1 (human, UniProt P05121 24-402).
T2 construct: also called latent PAI-1
Briefly: IgG competition ELISA (DELFIA), one-site binding analysis.

Assay [3] has as its target T2, latent human PAI-1. In words: IgG competition ELISA (DELFIA) against biotinylated human PAI-1, one-site binding analysis; column Human latent.
The target in a further assay is T3, rabbit PAI-1 (rabbit).
T3 chain: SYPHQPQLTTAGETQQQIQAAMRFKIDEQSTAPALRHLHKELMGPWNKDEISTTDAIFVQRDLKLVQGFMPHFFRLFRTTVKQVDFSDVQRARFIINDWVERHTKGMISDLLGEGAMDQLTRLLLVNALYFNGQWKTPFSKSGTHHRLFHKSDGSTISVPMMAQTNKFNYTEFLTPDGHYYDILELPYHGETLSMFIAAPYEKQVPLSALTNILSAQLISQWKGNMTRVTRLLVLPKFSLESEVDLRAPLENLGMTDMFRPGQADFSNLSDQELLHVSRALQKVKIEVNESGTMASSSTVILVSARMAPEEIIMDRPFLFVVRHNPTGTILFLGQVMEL
In words: IgG competition ELISA (DELFIA) against biotinylated human PAI-1, one-site binding analysis; column Rabbit.

For another assay, the target named is cynomolgus PAI-1 (cynomolgus, UniProt P05121 24-402 (human entry), limits assumed). Briefly: cell-based or functional assay.
In another assay the target is T4, rat PAI-1 (rat, UniProt P20961 24-402).
T4 sequence: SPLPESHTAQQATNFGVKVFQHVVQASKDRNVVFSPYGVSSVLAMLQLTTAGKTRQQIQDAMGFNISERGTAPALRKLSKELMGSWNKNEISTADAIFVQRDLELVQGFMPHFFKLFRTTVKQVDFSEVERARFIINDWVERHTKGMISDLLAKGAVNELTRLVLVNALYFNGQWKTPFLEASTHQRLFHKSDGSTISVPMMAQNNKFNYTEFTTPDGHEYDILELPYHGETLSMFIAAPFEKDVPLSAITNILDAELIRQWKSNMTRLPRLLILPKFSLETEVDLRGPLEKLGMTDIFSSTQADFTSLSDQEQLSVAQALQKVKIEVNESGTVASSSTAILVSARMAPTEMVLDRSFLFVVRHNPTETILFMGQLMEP
Briefly: cell-based or functional assay.

The target of assay [4] is human PAI-1, active, wild-type, non-glycosylated (E. coli-derived) (human, UniProt P05121 24-402). Briefly: cell-based or functional assay.

B1: PICK167_A01 IgG1 (antibody, V domains shown)
VH: QVQLQQSGAEVKKPGSSVKVSCKASGGTFSSYAISWVRQAPGQRLEWMGGIIPTFGTANYAQKFQGRVTITADESTSTAYMELSGLRSEDTAVYYCARERRQWLEGHFDYWGRGTPVTVSS
VL: DIQMTQSPSFLSASIGDRVTITCRASEGIYHNLAWYQQKPGKAPKLLIYKASSLASGAPSRFSGSRSGTDFTLTISSLQPDDFATYYCQQYSNYPLTFGGGTKLEIKR
On to B1, for which the “fold difference in observed binding KD compared to human wild-type active” value in assay [1] stood at 2.7 fold; in the assay with latent human PAI-1 [3], 8.5 fold; with rabbit PAI-1, 41.5 fold. The “fold loss of binding affinity against wild-type active PAI-1” value with latent human PAI-1 [2] was found to be 10 fold. In addition, the “IC50, PAI-1:tPA functional assay” value is 0.8 nM with cynomolgus PAI-1, 1.97 nM with rat PAI-1 and 1.34 nM in assay [4].

These data come from patent publication US20120114652A1 (AbbVie / Abbott, published 2012).
